Data published in ChEMBL document CHEMBL2074244, “Loss of ATP-dependent transport activity in pseudoxanthoma elasticum-associated mutants of human ABCC6 (MRP6)” (J Biol Chem, 2002).

What was measured:
[1] = substrate: CCCCC/C=C\C\C=C/C=C/C=C/[C@@H](SC[C@@H](NC(=O)CC[C@H](N)C(=O)O)C(=O)NCC(=O)O)[C@@H](O)CCCC(=O)O; test: (§1) TP_TRANSPORTER: uptake in membrane vesicles from MRP6-expressing Sf9 cells; format: functional, cell membranes, Membrane vesicle
[2] = substrate: NC(CCC(=O)NC(CNCC(=O)O)CSCCN1C(=O)C=CC1=O)C(=O)O; test: as §1; format: functional, cell membranes, Membrane vesicle

B1: ATP-binding cassette sub-family C member 6 (Homo sapiens) (protein)
chain: MAAPAEPCAGQGVWNQTEPEPAATSLLSLCFLRTAGVWVPPMYLWVLGPIYLLFIHHHGRGYLRMSPLFKAKMVLGFALIVLCTSSVAVALWKIQQGTPEAPEFLIHPTVWLTTMSFAVFLIHTERKKGVQSSGVLFGYWLLCFVLPATNAAQQASGAGFQSDPVRHLSTYLCLSLVVAQFVLSCLADQPPFFPEDPQQSNPCPETGAAFPSKATFWWVSGLVWRGYRRPLRPKDLWSLGRENSSEELVSRLEKEWMRNRSAARRHNKAIAFKRKGGSGMKAPETEPFLRQEGSQWRPLLKAIWQVFHSTFLLGTLSLIISDVFRFTVPKLLSLFLEFIGDPKPPAWKGYLLAVLMFLSACLQTLFEQQNMYRLKVLQMRLRSAITGLVYRKVLALSSGSRKASAVGDVVNLVSVDVQRLTESVLYLNGLWLPLVWIVVCFVYLWQLLGPSALTAIAVFLSLLPLNFFISKKRNHHQEEQMRQKDSRARLTSSILRNSKTIKFHGWEGAFLDRVLGIRGQELGALRTSGLLFSVSLVSFQVSTFLVALVVFAVHTLVAENAMNAEKAFVTLTVLNILNKAQAFLPFSIHSLVQARVSFDRLVTFLCLEEVDPGVVDSSSSGSAAGKDCITIHSATFAWSQESPPCLHRINLTVPQGCLLAVVGPVGAGKSSLLSALLGELSKVEGFVSIEGAVAYVPQEAWVQNTSVVENVCFGQELDPPWLERVLEACALQPDVDSFPEGIHTSIGEQGMNLSGGQKQRLSLARAVYRKAAVYLLDDPLAALDAHVGQHVFNQVIGPGGLLQGTTRILVTHALHILPQADWIIVLANGAIAEMGSYQELLQRKGALMCLLDQARQPGDRGEGETEPGTSTKDPRGTSAGRRPELRRERSIKSVPEKDRTTSEAQTEVPLDDPDRAGWPAGKDSIQYGRVKATVHLAYLRAVGTPLCLYALFLFLCQQVASFCRGYWLSLWADDPAVGGQQTQAALRGGIFGLLGCLQAIGLFASMAAVLLGGARASRLLFQRLLWDVVRSPISFFERTPIGHLLNRFSKETDTVDVDIPDKLRSLLMYAFGLLEVSLVVAVATPLATVAILPLFLLYAGFQSLYVVSSCQLRRLESASYSSVCSHMAETFQGSTVVRAFRTQAPFVAQNNARVDESQRISFPRLVADRWLAANVELLGNGLVFAAATCAVLSKAHLSAGLVGFSVSAALQVTQTLQWVVRNWTDLENSIVSVERMQDYAWTPKEAPWRLPTCAAQPPWPQGGQIEFRDFGLRYRPELPLAVQGVSFKIHAGEKVGIVGRTGAGKSSLASGLLRLQEAAEGGIWIDGVPIAHVGLHTLRSRISIIPQDPILFPGSLRMNLDLLQEHSDEAIWAALETVQLKALVASLPGQLQYKCADRGEDLSVGQKQLLCLARALLRKTQILILDEATAAVDPGTELQMQAMLGSWFAQCTVLLIAHRLRSVMDCARVLVMDKGQVAESGSPAQLLAQKGLFYRLAQESGLV
Protein B1 has a Km [1] of 0.6 µM and a Km [2] of 282 µM.
